{"source": "patent US20200010536A1", "binders": {"B1": {"name": "SA-13 (antibody, V domains shown)", "VH": "QVQLVESGGGLVRPGGSLRLSCAASGFTFSEYYMSWIRQAPGKGLEWLSYISSSGTTIGHADSLKGRFTISRDNARNSLFLQMNSLRAEDTAVYYCARDGVGGPRARYDAFDIWGQGTLVTVSS", "VL": "QSVLTQPPSVSGAPGQRVTISCTGTYSNIGAGYDVHWYQQLPGRAPKLLIYGNRNRPSGVPDRFSGSKSGTSASLAITGLQAEDEADYYCQSHDSSLSGSVFGGGTKVTVL"}, "B2": {"name": "SA-15 (antibody, V domains shown)", "VH": "QVQLVQSGGGVVQPGRSLRLSCAASGFSFSTYDMNWVRQAPGKGLEWLSIISYDETNKYYADSVKGRFTISRDNSKNTLFLQMNSLKPEDSAVYHCVKVGWTLVGDGVDMWGQGTLVTVSS", "VL": "QPVLTQSPSSLSASVGDRVTISCRASQGISHYLAWYQQQPGKVPKLLIYAASTLQSGVPSRFSGSGSGTDFTLTISSLQPEDVATYYCQKYNGAPFTFGPGTKVDIK"}, "B3": {"name": "SA-17 (antibody, V domains shown)", "VH": "QVQLVQSGGAVVQPGGSLRLSCVASGFTFDDYAMHWVRQAPGKGLEWVSLITLDGGRTYYADSVKGRFTISRDNSKNSLYLQMNRLRADDTGFYYCARDIKIGEAVMITVPGQHWGQGTLVTVSS", "VL": "QSVVTQDPGVSVALGQTVFITCQGDTLRSNYANWFQQKPGQAPVLVMYGKNNRPSGIPDRFSGSSSGNTASLTITGAQAEDEADYYCNSRDSSGNHVVFGGGTRVTVL"}}}
{"biological_target": "LukAB heterodimer (Staphylococcus aureus)", "assay": "ELISA, immobilized LukAB, anti-human IgG-peroxidase detection", "units": {"EC50": "µg/mL"}}
{"binder": "B1", "EC50": 0.8}
{"binder": "B2", "EC50": 1.5}
{"binder": "B3", "EC50": 0.3}
